Experimental findings from US20220025037A1 (DRAGONFLY THERAPEUTICS, published 2022) are described below.

Test [1] concerns the target recombinant human DLL3 (ELISA coat) (human) (UniProt Q9NYJ7). In words: ELISA on coated recombinant human DLL3, anti-mouse IgG-HRP.
A further test deals with T1, recombinant human DLL4 (human, UniProt Q9NR61 27-524, limits assumed).
T1 construct: Coated on plates at 0.5 µg/ml
In words: ELISA, plate coated with recombinant human DLL4 at 0.5 ug/ml, anti-mouse IgG-HRP/TMB, signal as % of positive control max. The protocol: To investigate the binding of anti-DLL3 antibodies to human DLL3, wells of high binding flat-bottom plates were coated with recombinant human DLL3 diluted to 0.5 μg/ml. To assess cross-reactivity of the antibodies to DLL1/DLL4, which are closely related family members to DLL3, plates were coated with recombinant human DLL1 diluted to 1 μg/ml, or human DLL4 diluted to 0.5 μg/ml. […] Binding was detected using anti-mouse IgG-HRP and 3,3′,5,5′-Tetramethylbenzidine (TMB) substrate. Signals were normalized to the corresponding positive control antibody.

Test [2] addresses T2, human DLL3-His (human, UniProt Q9NYJ7 27-492, limits assumed).
T2 construct: also called hDLL3
T2 sequence (looked up): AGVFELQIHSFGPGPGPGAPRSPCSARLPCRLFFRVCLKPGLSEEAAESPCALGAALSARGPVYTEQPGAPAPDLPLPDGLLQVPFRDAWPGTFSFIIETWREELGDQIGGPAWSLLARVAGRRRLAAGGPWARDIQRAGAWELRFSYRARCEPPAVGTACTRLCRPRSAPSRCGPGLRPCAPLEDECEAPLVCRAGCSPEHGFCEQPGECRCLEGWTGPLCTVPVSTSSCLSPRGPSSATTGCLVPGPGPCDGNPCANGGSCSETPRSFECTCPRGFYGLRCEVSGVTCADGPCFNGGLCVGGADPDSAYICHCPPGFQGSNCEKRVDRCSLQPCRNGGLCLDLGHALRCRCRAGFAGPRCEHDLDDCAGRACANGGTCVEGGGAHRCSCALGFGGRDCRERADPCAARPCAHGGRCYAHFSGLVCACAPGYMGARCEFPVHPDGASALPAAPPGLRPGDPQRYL
The test can be described thus: SPR (Biacore 8K), 37 C, antibody captured on anti-mouse Fc, human DLL3-His injected, 1:1 fit. From the text: (§1) The kinetics of binding of different humanized variants and parental murine 5E7 antibody to human DLL3-His was studied by Surface Plasmon Resonance using a Biacore 8K instrument. Briefly, anti-hFc and anti-mFc IgG proteins were covalently immobilized onto different channels of CM5 chip to allow simultaneous analysis of human and murine antibodies. m5E7 was captured on the anti-mouse Fc channel and humanized variants were captured on the anti-human Fc channel at a desired capture level of ˜56 RU in HBS-EP+ buffer supplemented with 0.1% BSA. Three buffer blanks and human DLL3-His (analyte) at concentrations 0.411-300 nM (in three fold dilutions) were injected over the surface with captured murine or humanized 5E7 for 300 second association time and let dissociate for 600 second at a flow rate of 30 μL/min. The surfaces were subjected to regeneration with three 20-second pulses of 10 mM glycine pH 1.70 at a flow rate of 100 μL/min between every concentration of analyte. The experiment was conducted at 37° C. Data were double referenced and a 1:1 fit model was applied to the sensorgrams in the Biacore Insight Evaluation software.
(§2) The kinetic parameters of human DLL3-His binding to murine and humanized variants of 5E7 antibody variants were calculated and shown in Table 12.

In test [3] the target is T2, human DLL3-His. In words: SPR (Biacore 8K), 37 C, antibody captured on anti-human Fc, human DLL3-His injected, 1:1 fit.
Description: as §1, §2

Test [4] addresses T3, DLL3 on RPMI-8226 cells transduced to express the full-length extracellular portion of DLL3 (UniProt Q9NYJ7 27-492, limits assumed).
T3 construct: extracellular domain; also called DLL3+ RPMI-8226 cells; cell surface DLL3
T3 sequence (looked up): T2 sequence (looked up)
The test can be described thus: flow cytometry on RPMI-8226 cells transduced to express DLL3, fluorophore-conjugated anti-human IgG secondary, MFI. How it is done:
To assess the binding of the mAbs to DLL3 positive cells, human myeloma cell line RPMI-8226 was transduced to express the full-length extracellular portion of DLL3. Anti-DLL3 mAbs were diluted and incubated with DLL3⁺ RPMI-8226 cells. The cells were analyzed by flow cytometry and binding of a mAb was detected using a fluorophore conjugated anti-human IgG secondary antibody.

Numbering of substitutions follows the chain as printed.

T1 sequence (Q9NR61 27-524 limits assumed): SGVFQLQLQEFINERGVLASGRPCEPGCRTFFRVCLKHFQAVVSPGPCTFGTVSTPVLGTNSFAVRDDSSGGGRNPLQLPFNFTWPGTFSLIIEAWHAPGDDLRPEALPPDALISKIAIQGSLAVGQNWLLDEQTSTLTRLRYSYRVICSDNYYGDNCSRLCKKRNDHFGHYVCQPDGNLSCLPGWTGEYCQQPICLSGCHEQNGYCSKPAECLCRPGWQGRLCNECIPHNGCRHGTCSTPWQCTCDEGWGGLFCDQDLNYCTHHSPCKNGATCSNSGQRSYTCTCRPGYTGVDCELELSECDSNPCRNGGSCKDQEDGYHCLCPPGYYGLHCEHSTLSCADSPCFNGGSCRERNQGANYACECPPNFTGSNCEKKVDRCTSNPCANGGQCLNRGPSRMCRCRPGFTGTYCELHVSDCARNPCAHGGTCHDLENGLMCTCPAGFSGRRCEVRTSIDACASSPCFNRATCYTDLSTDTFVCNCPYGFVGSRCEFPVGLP

Turning to “positive control antibody for DLL3 (R&D Systems-MAB4315)”, the EC50 in test [1] is 0.1 nM.

B1: murine anti-DLL3 antibody clone 5E7 (antibody, V domains shown)
VH: EVQLQQSGAELVRPGASVKLSCTASGFNIKDDYIHWVKQWPEQGLEWIGWIDSENGDTEYASKFQGKATMTADTSSNTAYLQLSGLTSEDTAVYYCTTSSYYSYDLFVYWGQGTLVTVSA
VL: DVLMTQTPLTLSVPIGQPASISCKSSQSLLHSNGKTYLNWLLQRPGQSPKLLIYLVSKLESGVPDRFSGSGSGTDFTLKISRVEAEDLGVYYCLQTTHLYTFGGGTKLEIK
notes: Mouse hybridoma antibody, captured by anti-mouse Fc; also called m5E7; murine 5E7
For B1, the binding result with recombinant human DLL4 is on record as “binds”. Besides, in the test with human DLL3-His [2], the affinity, expressed as Kd, was 1.2 nM.

B2: humanized anti-DLL3 antibody h5E7 (antibody, V domains shown)
VH: QVQLVQSGAEVKKPGASVKVSCKASGFNIKDDYIHWVRQAPGQGLEWMGWIDSENGDTEYASKFQGRVTITADTSANTAYMELSSLRSEDTAVYYCATSSYYSYDLFVYWGQGTLVTVSS
VL: DVQMTQSPSSLSASVGDRVTITCKSSQSLLHSNGKTYLNWLQQKPGQAPKLLLYLVSKLESGVPSRFSGSGSGTDYTLTISSLQPEDFATYYCLQTTHLYTFGQGTKLEIK
notes: also called clone h5E7
Regarding B2, the equilibrium dissociation constant (Kd) with human DLL3-His [3] was 8.7 nM. Further, the concentration for a half-maximal effect (EC50 (read off the curve)) in test [4] was about 6 nM.

B3: humanized anti-DLL3 antibody h5E7-YD-C6 (antibody, V domains shown)
VH: B2 VH with S100E
VL: B2 VL
notes: also called C6 variant
In turn, B3 registered a dissociation constant Kd with human DLL3-His [3] of 3.3 nM.

B4: humanized anti-DLL3 antibody h5E7-YD-F3 (antibody, V domains shown)
VH: B2 VH with Y102W, F107L
VL: B2 VL
notes: also called F3 variant
In the test with human DLL3-His [3], B4 came in with an equilibrium dissociation constant (Kd) of 1.2 nM.
